What was measured:
Test in all cases: SEC
[1] = target: Apo-COCP (colorless apoprotein of COCP, OCP-CTD without carotenoid) (Synechocystis sp. PCC 6803) (UniProt P74102)
[2] = target: C-terminal OCP-related Carotenoid Protein (COCP), carotenoid-bound OCP-CTD (Synechocystis sp. PCC 6803) (UniProt P74102)
[3] = target: the molecule itself

Apo-COCP (colorless apoprotein of COCP, OCP-CTD without carotenoid) (from UniProt P74102 1-317) (domain or fragment)
stoichiometry N [1]: 2

C-terminal OCP-related Carotenoid Protein (COCP), carotenoid-bound OCP-CTD (from UniProt P74102 1-317) (domain or fragment)
stoichiometry N [2]: 2

B1: Fluorescence Recovery Protein (FRP) (natural protein)
chain: MLQTAEAPWSQAETQSAHALFRKAYQRELDGLLATVQAQASQITQIDDLWKLHDFLSAKRHEIDGKYDDRQSVIIFVFAQLLKEGLVQAEELTFLAADKQSKIKALARL
stoichiometry N [3]: 2
